Experimental findings from patent US20150344570A1 (published 2015) are described below.

In test [1] the target is T1, FcγRIIa H (human, UniProt P12318 34-217).
T1 construct: extracellular domain; also called FcgRIIa H; 2aH; not shown: His tag attached to the C terminus
T1 sequence (looked up): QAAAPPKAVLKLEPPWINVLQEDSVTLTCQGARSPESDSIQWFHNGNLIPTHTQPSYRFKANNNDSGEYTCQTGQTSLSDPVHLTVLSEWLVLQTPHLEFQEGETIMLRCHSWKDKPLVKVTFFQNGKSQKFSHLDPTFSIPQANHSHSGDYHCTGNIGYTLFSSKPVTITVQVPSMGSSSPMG
The test can be described thus: SPR (Biacore), antibody captured on antigen peptide chip, FcγR as analyte; relative binding activity. The procedure: (§1) The heterodimerized antibodies He Abs in which one of the H chains was introduced with an alteration were assayed for their binding activities to each activating FcγR and inhibitory FcγR according to the method described in Example 4. […] The activating FcγRs in FIGS. 26, 27, 28, and 29 are FcγRIa, FcγRIIa (R), FcγRIIa (H), and FcγRIIIa, respectively.
(§2) Analysis of interaction between objective antibody and the FcγR was carried out using Biacore T100 (GE Healthcare). HBS-EP+ (GE Healthcare) was used as the running buffer, and the measurement temperature was set to 25° C. Chips produced by immobilizing the antigen peptide by the amine coupling method to a Series S Sencor Chip CM5 (GE Healthcare), or alternatively, chips produced by allowing preliminarily biotinylated antigen peptides to interact with and immobilize onto a Series S Sensor Chip SA (certified) (GE Healthcare) were used. Antibodies of interest were captured onto an antigen peptide-immobilized chip, and allowed to interact to each FcγR diluted with running buffer. To regenerate and repeatedly use the chip, the antibodies captured on the chip were washed off by reacting 10 mM glycine-HCl, pH 1.5.
Background: Surface plasmon resonance follows binding to a sensor surface in real time, without labels.

Test [2] concerns the target T2, FcγRIIb (human, UniProt P31994 43-217).
T2 construct: extracellular domain; also called FcgRIIb; 2b; not shown: His tag attached to the C terminus
T2 sequence (looked up): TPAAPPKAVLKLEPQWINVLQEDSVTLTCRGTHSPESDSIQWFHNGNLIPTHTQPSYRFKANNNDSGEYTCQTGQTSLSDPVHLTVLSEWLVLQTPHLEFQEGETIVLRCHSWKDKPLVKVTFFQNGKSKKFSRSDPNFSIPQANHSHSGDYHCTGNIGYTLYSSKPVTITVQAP
Described as above. As for the experimental part:
as §1, §2

Test [3] addresses T1, FcγRIIa H. The test can be described thus: SPR; He/Con for FcγRIIa H divided by He/Con for FcγRIIb.
For test [4], the target named is T3, FcγRIIa H (human, UniProt P12318 34-217).
T3 construct: extracellular domain; also called FcgRIIa H; FcγRIIa type H
T3 sequence (looked up): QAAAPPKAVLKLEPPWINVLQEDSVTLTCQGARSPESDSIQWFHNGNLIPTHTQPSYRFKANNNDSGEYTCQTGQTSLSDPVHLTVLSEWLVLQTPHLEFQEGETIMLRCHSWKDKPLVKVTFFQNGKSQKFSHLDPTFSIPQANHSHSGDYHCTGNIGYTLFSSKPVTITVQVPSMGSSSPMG
In words: SPR (Biacore); He/Con_2aH divided by He/Con_2b (FcγRIIa H over FcγRIIb).

Test [5] has as its target T4, FcγRIIb (human, UniProt P31994 43-217).
T4 construct: extracellular domain; also called FcgRIIb; 2b
T4 sequence (looked up): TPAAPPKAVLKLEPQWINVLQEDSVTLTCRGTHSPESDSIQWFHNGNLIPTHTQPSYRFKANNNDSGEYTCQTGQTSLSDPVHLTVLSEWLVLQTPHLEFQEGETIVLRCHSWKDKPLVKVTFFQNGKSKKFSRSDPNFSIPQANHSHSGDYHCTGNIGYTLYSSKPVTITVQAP
In words: SPR (Biacore), antibody captured, FcγR analyte; binding relative to GpH7-A5/GpH7-B3/GpL16-k0 = 100.

Test [6] concerns the target T3, FcγRIIa H. The test is described as above.

B1: GpH7-A5/GpH7-B3 variant S239_11K/GpL16-k0 (antibody, human IgG1, kappa)
heavy 1: not shown
heavy 2: not shown
light: DIVMTQSPLSLPVTPGEPASISCQASESLVHSNRNTYLHWYLQKPGQSPQLLIYKVSNRFSGVPDRFSGSGSGTDFTLKISRVEAEDVGVYYCSQNTHVPPTFGQGTKVEIERTVAAPSVFIFPPSDEQLKSGTASVVCLLNNFYPREAKVQWKVDNALQSGNSQESVTEQDSKDSTYSLSSTLTLSKADYEKHKVYACEVTHQGLSSPVTKSFNRGEC
notes: Heterodimerized anti-glypican-3 IgG1; mutation in one H chain only; also called He Ab
For B1, the He/Con_2aH with FcγRIIa H [1] is 48.1 % of GpH7-A5/GpH7-B3/GpL16-k0 (=100). In addition, the He/Con_2b with FcγRIIb [2] was 24.7 % of GpH7-A5/GpH7-B3/GpL16-k0 (=100). The “He_2aH/2b (IIaH/IIb)” value in the test with FcγRIIa H [3] is 1.94 ratio.

B2: GpH7-A5/GpH7-B3 variant G237_02A/GpL16-k0 (antibody, human IgG1, kappa)
heavy 1: not shown
heavy 2: not shown
light: DIVMTQSPLSLPVTPGEPASISCQASESLVHSNRNTYLHWYLQKPGQSPQLLIYKVSNRFSGVPDRFSGSGSGTDFTLKISRVEAEDVGVYYCSQNTHVPPTFGQGTKVEIERTVAAPSVFIFPPSDEQLKSGTASVVCLLNNFYPREAKVQWKVDNALQSGNSQESVTEQDSKDSTYSLSSTLTLSKADYEKHKVYACEVTHQGLSSPVTKSFNRGEC
notes: Heterodimerized antibody, alteration in one H chain only; also called He Ab G237A
In the case of B2, the “He_2aH/2b (IIaH/IIb)” value with FcγRIIa H [4] worked out at 0.27 ratio. In addition, the He/Con_2b with FcγRIIb [5] is 124 % of control. The He/Con_2aH in the test with FcγRIIa H [6] was 34 % of control.

B3: GpH7-A5/GpH7-B3 variant G236_09D/GpL16-k0 (antibody, human IgG1, kappa)
heavy 1: not shown
heavy 2: not shown
light: DIVMTQSPLSLPVTPGEPASISCQASESLVHSNRNTYLHWYLQKPGQSPQLLIYKVSNRFSGVPDRFSGSGSGTDFTLKISRVEAEDVGVYYCSQNTHVPPTFGQGTKVEIERTVAAPSVFIFPPSDEQLKSGTASVVCLLNNFYPREAKVQWKVDNALQSGNSQESVTEQDSKDSTYSLSSTLTLSKADYEKHKVYACEVTHQGLSSPVTKSFNRGEC
notes: Heterodimerized antibody, alteration in one H chain only; also called He Ab G236D
Turning to B3, the “He_2aH/2b (IIaH/IIb)” value with FcγRIIa H [4] was 0.54 ratio. Moreover, the He/Con_2b with FcγRIIb [5] is 167 % of control. For the same molecule, in the test with FcγRIIa H [6], the He/Con_2aH is 89.8 % of control.

B4: GpH7-A5/GpH7-B3 variant S239_12R/GpL16-k0 (antibody, human IgG1, kappa)
heavy 1: not shown
heavy 2: not shown
light: DIVMTQSPLSLPVTPGEPASISCQASESLVHSNRNTYLHWYLQKPGQSPQLLIYKVSNRFSGVPDRFSGSGSGTDFTLKISRVEAEDVGVYYCSQNTHVPPTFGQGTKVEIERTVAAPSVFIFPPSDEQLKSGTASVVCLLNNFYPREAKVQWKVDNALQSGNSQESVTEQDSKDSTYSLSSTLTLSKADYEKHKVYACEVTHQGLSSPVTKSFNRGEC
notes: as for B1
On to B4, for which the He/Con_2aH in the test with FcγRIIa H [1] was 57.1 % of GpH7-A5/GpH7-B3/GpL16-k0 (=100). For the same molecule, in the test with FcγRIIb [2], the He/Con_2b is 39.1 % of GpH7-A5/GpH7-B3/GpL16-k0 (=100). Also, the “He_2aH/2b (IIaH/IIb)” value with FcγRIIa H [3] is 1.46 ratio.

B5: GpH7-A5/GpH7-B3 variant V266_05P/GpL16-k0 (antibody, human IgG1, kappa)
heavy 1: not shown
heavy 2: not shown
light: DIVMTQSPLSLPVTPGEPASISCQASESLVHSNRNTYLHWYLQKPGQSPQLLIYKVSNRFSGVPDRFSGSGSGTDFTLKISRVEAEDVGVYYCSQNTHVPPTFGQGTKVEIERTVAAPSVFIFPPSDEQLKSGTASVVCLLNNFYPREAKVQWKVDNALQSGNSQESVTEQDSKDSTYSLSSTLTLSKADYEKHKVYACEVTHQGLSSPVTKSFNRGEC
notes: as for B1
As to B5, the He/Con_2aH with FcγRIIa H [1] was 0.7 % of GpH7-A5/GpH7-B3/GpL16-k0 (=100). In addition, the He/Con_2b in the test with FcγRIIb [2] was 0.4 % of GpH7-A5/GpH7-B3/GpL16-k0 (=100). Moreover, the “He_2aH/2b (IIaH/IIb)” value with FcγRIIa H [3] amounted to 1.91 ratio.

B6: GpH7-A5/GpH7-B3 variant S239_16H/GpL16-k0 (antibody, human IgG1, kappa)
heavy 1: not shown
heavy 2: not shown
light: DIVMTQSPLSLPVTPGEPASISCQASESLVHSNRNTYLHWYLQKPGQSPQLLIYKVSNRFSGVPDRFSGSGSGTDFTLKISRVEAEDVGVYYCSQNTHVPPTFGQGTKVEIERTVAAPSVFIFPPSDEQLKSGTASVVCLLNNFYPREAKVQWKVDNALQSGNSQESVTEQDSKDSTYSLSSTLTLSKADYEKHKVYACEVTHQGLSSPVTKSFNRGEC
notes: as for B1
For the molecule B6, the He/Con_2aH in the test with FcγRIIa H [1] was 59.4 % of GpH7-A5/GpH7-B3/GpL16-k0 (=100). For the same molecule, in the test with FcγRIIb [2], the He/Con_2b is 49.4 % of GpH7-A5/GpH7-B3/GpL16-k0 (=100). Also, the “He_2aH/2b (IIaH/IIb)” value in the test with FcγRIIa H [3] was determined as 1.2 ratio.

B7: GpH7-A5/GpH7-B3 variant G237_12R/GpL16-k0 (antibody, human IgG1, kappa)
heavy 1: not shown
heavy 2: not shown
light: DIVMTQSPLSLPVTPGEPASISCQASESLVHSNRNTYLHWYLQKPGQSPQLLIYKVSNRFSGVPDRFSGSGSGTDFTLKISRVEAEDVGVYYCSQNTHVPPTFGQGTKVEIERTVAAPSVFIFPPSDEQLKSGTASVVCLLNNFYPREAKVQWKVDNALQSGNSQESVTEQDSKDSTYSLSSTLTLSKADYEKHKVYACEVTHQGLSSPVTKSFNRGEC
notes: Heterodimerized antibody, alteration in one H chain only; also called He Ab G237R
Consider B7, for which, in the test with FcγRIIa H [4], the “He_2aH/2b (IIaH/IIb)” value was 0.76 ratio. Further, in the test with FcγRIIa H [6], the He/Con_2aH is 7.5 % of control.
